From PMC9837058, “Oncogenic mutations of PIK3CA lead to increased membrane recruitment driven by reorientation of the ABD, p85 and C-terminus” (Nature Communications, 2023)
[ ]: non-standard residue; d: D form. pY = N[C@@H](Cc1ccc(OP(=O)(O)O)cc1)C(=O)O

Tests used:
Assay in all cases: HDX-MS; purified p110α/p85α complex (9 pmol) incubated with pY peptide (1 µl of 50 µM) or buffer for 15 min on ice; exchange 3 s on ice and 3, 30, 300, 3000 s at 20 °C; 20 mM HEPES pH 7.5, 100 mM NaCl
Conditions in all cases: both partners purified
[1] = biological target: T1, p110α ΔCter (1–1048)-p85α complex (human, UniProt P42336 1-1048; P27986 1-724)
T1 construct: p85α, human, residues 1-724; Heterodimer of m7 and m2; source: Sf9 (baculovirus), co-expressed, purified (Ni-NTA, Strep column, Q column, gel filtration); not shown: His10, N-terminal, cleaved; 2x Strep, N-terminal, cleaved
T1 sequence (P42336 1-1048, stated change not applied, chain 1 of 2): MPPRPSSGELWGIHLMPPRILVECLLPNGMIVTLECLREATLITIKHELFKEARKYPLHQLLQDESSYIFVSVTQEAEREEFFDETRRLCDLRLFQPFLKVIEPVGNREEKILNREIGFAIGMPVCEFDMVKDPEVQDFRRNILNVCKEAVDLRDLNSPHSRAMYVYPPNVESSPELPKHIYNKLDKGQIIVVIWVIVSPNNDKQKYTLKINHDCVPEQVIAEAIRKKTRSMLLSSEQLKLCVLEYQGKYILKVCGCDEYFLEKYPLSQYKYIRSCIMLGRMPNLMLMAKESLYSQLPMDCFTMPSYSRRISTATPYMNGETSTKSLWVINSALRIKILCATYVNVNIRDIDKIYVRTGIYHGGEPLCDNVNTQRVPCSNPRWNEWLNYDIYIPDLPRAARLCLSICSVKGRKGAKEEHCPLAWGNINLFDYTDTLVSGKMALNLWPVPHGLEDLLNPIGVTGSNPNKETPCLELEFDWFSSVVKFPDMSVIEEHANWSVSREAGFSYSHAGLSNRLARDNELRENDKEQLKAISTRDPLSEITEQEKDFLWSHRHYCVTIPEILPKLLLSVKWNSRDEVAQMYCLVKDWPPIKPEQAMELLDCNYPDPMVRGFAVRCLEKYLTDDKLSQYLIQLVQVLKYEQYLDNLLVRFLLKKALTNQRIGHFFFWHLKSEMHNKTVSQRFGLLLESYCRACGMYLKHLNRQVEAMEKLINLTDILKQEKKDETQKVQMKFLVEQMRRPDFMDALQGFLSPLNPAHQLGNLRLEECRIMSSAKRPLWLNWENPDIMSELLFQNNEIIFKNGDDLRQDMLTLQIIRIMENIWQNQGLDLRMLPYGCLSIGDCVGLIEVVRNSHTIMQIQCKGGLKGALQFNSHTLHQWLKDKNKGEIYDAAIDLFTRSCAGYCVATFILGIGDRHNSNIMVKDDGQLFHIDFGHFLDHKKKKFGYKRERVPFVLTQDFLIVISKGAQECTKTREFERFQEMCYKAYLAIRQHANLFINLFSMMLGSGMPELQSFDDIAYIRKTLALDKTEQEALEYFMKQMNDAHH
T1 sequence (P27986 whole entry, stated change not applied, chain 2 of 2, the tested form may be a part): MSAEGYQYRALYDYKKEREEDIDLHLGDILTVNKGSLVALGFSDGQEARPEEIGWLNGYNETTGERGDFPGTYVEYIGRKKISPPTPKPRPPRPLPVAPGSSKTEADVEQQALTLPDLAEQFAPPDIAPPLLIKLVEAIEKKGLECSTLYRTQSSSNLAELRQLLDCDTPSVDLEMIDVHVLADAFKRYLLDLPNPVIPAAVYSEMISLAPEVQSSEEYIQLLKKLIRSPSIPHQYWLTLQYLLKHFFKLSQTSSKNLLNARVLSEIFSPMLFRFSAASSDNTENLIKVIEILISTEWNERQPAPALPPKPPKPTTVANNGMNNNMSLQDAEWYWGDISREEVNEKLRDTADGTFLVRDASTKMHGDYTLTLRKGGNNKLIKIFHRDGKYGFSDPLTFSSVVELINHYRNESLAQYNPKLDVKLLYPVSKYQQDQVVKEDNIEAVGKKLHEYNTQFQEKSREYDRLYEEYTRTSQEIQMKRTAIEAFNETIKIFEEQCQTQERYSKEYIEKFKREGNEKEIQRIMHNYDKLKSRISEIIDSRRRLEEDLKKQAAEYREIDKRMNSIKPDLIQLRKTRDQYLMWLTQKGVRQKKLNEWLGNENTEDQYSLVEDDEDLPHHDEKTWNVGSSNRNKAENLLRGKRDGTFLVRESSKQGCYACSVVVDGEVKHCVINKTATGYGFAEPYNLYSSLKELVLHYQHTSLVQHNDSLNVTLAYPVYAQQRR

[2] = biological target: T2, p110α H1047R-p85α complex (human, UniProt P42336 1-1068; P27986 1-724, H1047R)
T2 construct: p110α, human, full length with the oncogenic mutation H1047R; p85α, human, residues 1-724; Heterodimer of m4 and m2; also called p110α/p85α H1047R; source: Sf9 (baculovirus), co-expressed, purified (Ni-NTA, Strep column, Q column, gel filtration); not shown: His10, N-terminal, cleaved; 2x Strep, N-terminal, cleaved
T2 sequence (P42336 whole entry H1047R, chain 1 of 2, the tested form may be a part): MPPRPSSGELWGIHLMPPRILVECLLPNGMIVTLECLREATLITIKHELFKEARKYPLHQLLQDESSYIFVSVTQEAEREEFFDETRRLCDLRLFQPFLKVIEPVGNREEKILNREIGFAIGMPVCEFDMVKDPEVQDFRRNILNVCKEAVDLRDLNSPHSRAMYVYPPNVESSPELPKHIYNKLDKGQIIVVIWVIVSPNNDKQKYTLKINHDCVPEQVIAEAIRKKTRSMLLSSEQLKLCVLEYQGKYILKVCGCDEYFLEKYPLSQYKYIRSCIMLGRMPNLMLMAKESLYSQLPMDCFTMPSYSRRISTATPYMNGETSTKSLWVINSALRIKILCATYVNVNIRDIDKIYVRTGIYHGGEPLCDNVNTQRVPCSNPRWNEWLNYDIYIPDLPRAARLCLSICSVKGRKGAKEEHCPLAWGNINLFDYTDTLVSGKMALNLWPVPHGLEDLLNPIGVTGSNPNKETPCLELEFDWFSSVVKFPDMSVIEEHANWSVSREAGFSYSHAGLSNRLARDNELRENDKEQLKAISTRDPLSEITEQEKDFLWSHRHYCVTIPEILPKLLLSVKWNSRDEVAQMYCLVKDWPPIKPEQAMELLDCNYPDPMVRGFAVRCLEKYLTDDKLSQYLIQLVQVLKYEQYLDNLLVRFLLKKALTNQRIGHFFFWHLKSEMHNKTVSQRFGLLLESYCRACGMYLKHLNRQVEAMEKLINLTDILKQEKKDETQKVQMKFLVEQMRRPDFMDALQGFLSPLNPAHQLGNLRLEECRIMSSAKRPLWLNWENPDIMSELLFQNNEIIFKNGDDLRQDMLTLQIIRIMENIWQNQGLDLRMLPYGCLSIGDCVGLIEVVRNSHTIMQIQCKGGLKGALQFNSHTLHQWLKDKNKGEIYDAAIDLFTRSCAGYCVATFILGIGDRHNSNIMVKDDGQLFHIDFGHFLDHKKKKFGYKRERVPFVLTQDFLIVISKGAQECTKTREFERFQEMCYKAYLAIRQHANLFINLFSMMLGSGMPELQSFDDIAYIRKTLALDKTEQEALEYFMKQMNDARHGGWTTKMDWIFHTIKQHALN
T2 sequence (P27986 whole entry, chain 2 of 2, the tested form may be a part): as the sequence (P27986 whole entry, stated change not applied, chain 2 of 2, the tested form may be a part) above

[3] = biological target: T3, p110α-p85α complex (wild type, full length) (human, UniProt P42336 1-1068; P27986 1-724)
T3 construct: p85α, human, residues 1-724; Heterodimer of m1 and m2; also called WT p110α/p85α; full-length p110α-p85α; source: Sf9 (baculovirus), co-expressed, purified (Ni-NTA, Strep column, Q column, gel filtration); not shown: His10, N-terminal, cleaved; 2x Strep, N-terminal, cleaved
T3 sequence (P42336 whole entry, chain 1 of 2, the tested form may be a part): as the sequence (P42336 whole entry H1047R, chain 1 of 2, the tested form may be a part) above, with R1047H counted along it
T3 sequence (P27986 whole entry, chain 2 of 2, the tested form may be a part): as the sequence (P27986 whole entry, stated change not applied, chain 2 of 2, the tested form may be a part) above

Measured: binding result

B1: PDGFR bis-phosphorylated pY peptide (PDGFR residues 735–767, pY740, pY751) (peptide)
peptide: H-ESDGG[pY]MDMSKDESID[pY]VPMLDMKGDIKYADIE-OH
SMILES: CC[C@H](C)[C@H](NC(=O)[C@H](CC(=O)O)NC(=O)[C@H](C)NC(=O)[C@H](Cc1ccc(O)cc1)NC(=O)[C@H](CCCCN)NC(=O)[C@@H](NC(=O)[C@H](CC(=O)O)NC(=O)CNC(=O)[C@H](CCCCN)NC(=O)[C@H](CCSC)NC(=O)[C@H](CC(=O)O)NC(=O)[C@H](CC(C)C)NC(=O)[C@H](CCSC)NC(=O)[C@@H]1CCCN1C(=O)[C@@H](NC(=O)[C@H](Cc1ccc(OP(=O)(O)O)cc1)NC(=O)[C@H](CC(=O)O)NC(=O)[C@@H](NC(=O)[C@H](CO)NC(=O)[C@H](CCC(=O)O)NC(=O)[C@H](CC(=O)O)NC(=O)[C@H](CCCCN)NC(=O)[C@H](CO)NC(=O)[C@H](CCSC)NC(=O)[C@H](CC(=O)O)NC(=O)[C@H](CCSC)NC(=O)[C@H](Cc1ccc(OP(=O)(O)O)cc1)NC(=O)CNC(=O)CNC(=O)[C@H](CC(=O)O)NC(=O)[C@H](CO)NC(=O)[C@@H](N)CCC(=O)O)[C@@H](C)CC)C(C)C)[C@@H](C)CC)C(=O)N[C@@H](CCC(=O)O)C(=O)O
notes: PDGFR residues 735-767; human has V where this peptide has I at two places; also called phosphopeptide; source: synthetic peptide; bought: New England Peptide
binds: all assays above
